Experimental data as given in the supplement of paper PMC7125110.
± gives the standard error. For some of these results: Variants at the floor of the assay were thinned out.

B1: glmS ribozyme (parent)
chain: AUAAAAGCGCCAGAACUACAGAAAUGUAGUUGACGAGGAGGAGGUUUAUCGAAUUUUCGGCGGAUGCCUCCAAA

Tests used:
Conditions in all cases: with glucosamine-6-phosphate
glucosamine-6-phosphate [1] = variants of: B1; assay: kcat; higher = faster cleavage; RNA array
How it was run: (§1)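 Weighted Michaelis–Menten fits across concentrations supplied kcat and KM, based on kobs from one- or two-exponential decay fits to normalised per-tile medians. The data came from barcoded ribozyme variants transcribed in situ by E. coli RNA polymerase on sequenced MiSeq chips and tracked at 37 °C by a hybridised Cy3 probe. Glucosamine-6-phosphate (40 μM to 10 mM) in HEPES/KCl/Mg(OAc)2 buffer was flowed in.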

glucosamine-6-phosphate [2] = variants of: B1; assay: KM; higher = weaker cofactor use; RNA array
How it was run: as §1

glucosamine-6-phosphate [3] = variants of: B1; assay: self-cleavage kobs at 640 uM GlcN6P; higher = faster cleavage; RNA array
How it was run: as §1

glucosamine-6-phosphate [4] = variants of: B1; assay: self-cleavage kobs at 2500 uM GlcN6P; higher = faster cleavage; RNA array
How it was run: as §1

glucosamine-6-phosphate [5] = variants of: B1; assay: self-cleavage kobs at 10000 uM GlcN6P; higher = faster cleavage; RNA array
How it was run: as §1

glucosamine-6-phosphate [6] = variants of: B1; assay: self-cleavage kobs at 40 uM GlcN6P; higher = faster cleavage; RNA array
How it was run: as §1

glucosamine-6-phosphate [7] = variants of: B1; assay: self-cleavage kobs at 160 uM GlcN6P; higher = faster cleavage; RNA array
How it was run: as §1

Row | Variant | kcat (glucosamine-6-phosphate [1]) [s⁻¹] | KM (glucosamine-6-phosphate [2]) [µM] | self-cleavage kobs at 640 uM GlcN6P (glucosamine-6-phosphate [3]) [s⁻¹] | self-cleavage kobs at 2500 uM GlcN6P (glucosamine-6-phosphate [4]) [s⁻¹] | self-cleavage kobs at 10000 uM GlcN6P (glucosamine-6-phosphate [5]) [s⁻¹] | self-cleavage kobs at 40 uM GlcN6P (glucosamine-6-phosphate [6]) [s⁻¹] | self-cleavage kobs at 160 uM GlcN6P (glucosamine-6-phosphate [7]) [s⁻¹]
1 | C16G A39C U54G | 0.00043 ± 5.6e-05 | 1500 ± 410 | 0.000133 ± 2.1e-05 | 0.000227 ± 5.8e-05 | 0.000394 ± 6e-05 | – | –
2 | U30A C71U | 0.0039 ± 0.00081 | 1470 ± 450 | 0.00116 ± 0.00024 | 0.0021 ± 0.00045 | 0.00416 ± 0.00086 | 0.000127 ± 2.5e-05 | 0.000337 ± 8e-05
3 | A14G U65G | 0.00446 ± 0.00028 | 3780 ± 310 | 0.000633 ± 5.3e-05 | 0.00182 ± 0.00016 | 0.00321 ± 0.00033 | 4.37e-05 ± 6.7e-06 | 0.000193 ± 2.1e-05
4 | G37A G41U | 0.000119 ± 2.1e-05 | – | 4.8e-05 ± 1.3e-05 | 0.000126 ± 1.7e-05 | 0.0001 ± 1.2e-05 | – | –
5 | A15G U45C | 0.00752 ± 0.0016 | 5570 ± 1600 | 0.000853 ± 0.00012 | 0.00219 ± 0.00027 | 0.00497 ± 0.00061 | 7.04e-05 ± 1.4e-05 | 0.000179 ± 3.2e-05
6 | A15G A42G | 0.132 ± 0.031 | 3780 ± 970 | 0.024 ± 0.0099 | – | – | 0.00132 ± 0.00047 | 0.00525 ± 0.0011
7 | G29U U46G | 0.00127 ± 0.00012 | 2110 ± 340 | 0.000259 ± 5e-05 | 0.000689 ± 0.00011 | 0.00106 ± 0.00013 | 3.07e-05 ± 9.8e-06 | 9.52e-05 ± 2e-05
8 | U31A C70U | 0.0129 ± 0.0056 | – | 0.00235 ± 0.00031 | 0.0115 ± 0.0032 | 0.0113 ± 0.0017 | 0.000386 ± 5.3e-05 | 0.000843 ± 0.00019
9 | C50U U57A | 1.46e-05 ± 7e-07 | 397 ± 84 | – | – | < 1e-05 | < 1e-05 | –
10 | U30A A48C | 9.77e-05 ± 4.8e-06 | – | – | – | 4.29e-05 ± 8.1e-06 | – | –
11 | A12C A33C | 0.000196 ± 1.6e-05 | 2860 ± 540 | 3.98e-05 ± 9.4e-06 | 8.11e-05 ± 1.8e-05 | 0.000156 ± 1.8e-05 | – | –
12 | C11U A33U | 7.95e-05 ± 1.1e-06 | 1500 ± 99 | 2.29e-05 ± 1.1e-05 | 5.06e-05 ± 9.1e-06 | 6.9e-05 ± 5.3e-06 | – | –
13 | U31G C58G | 0.000125 ± 1.3e-05 | 1100 ± 400 | 5.51e-05 ± 1.3e-05 | 7.65e-05 ± 1.2e-05 | 0.000119 ± 1.3e-05 | – | –
14 | C16U U54G | 0.0201 ± 0.0063 | 1720 ± 730 | 0.00575 ± 0.00092 | 0.0115 ± 0.0019 | 0.0185 ± 0.0042 | 0.000682 ± 0.00011 | 0.00138 ± 0.00023
